Assay results reported in paper PMC8167360.

Target: Mac2 (SUD-N, macrodomain II) of SARS-CoV Nsp3, purified (SARS-CoV (strain Frankfurt))
Experiment: ITC; […] ([…]) […] ([…]) […]; 25°C; VP-ITC; 20 mM Tris–HCl pH 8.5, 150 mM NaCl

B1: middle domain of human Paip1 (Paip1M), purified (domain or fragment)
chain: GSHMASMTGGQQMGRGSTLSEYVQDFLNHLTEQPGSFETEIEQFAETLNGCVTTDDALQELVELIYQQATSIPNFSYMGARLCNYLSHHLTISPQSGNFRQLLLQRCRTEYEVKDQAAKGDEVTRKRFHAFVLFLGELYLNLEIKGTNGQVTRADILQVGLRELLNALFSNPMDDNLICAVKLLKLTGSVLEDAWKEKGKMDMEEIIQRIENVVLDANCSRDVKQMLLKLVELRSS
Kd: 15.5 µM
dH: -6.78 kcal/mol
stoichiometry N: 0.94
